Measurements: patent US20100087005A1, “AUXILIARY REAGENT FOR GENE TRANSFER” (priority 2006, published 2010)

Tested on: transgenic mice overexpressing full-length Del-1
Experiment: In vivo gene transfer of human thermostable alkaline phosphatase gene (TransIT In Vivo Gene Delivery System) in Del-1 transgenic mice, serum AP activity
Parameters: species or system mouse
Details: tail vein injection of human thermostable alkaline phosphatase gene, serum 24 hours later, heat treated 65° C. 30 minutes, FIG. 5
Protocol: According to the ordinary method, transgenic mice in which cDNA of full-length Del-1 (i.e., DNA consisting of the nucleotide sequence represented by SEQ ID NO: 9) is overexpressed were prepared (see Hidai et al., Anatomical Record A, vol. 287A, pp. 1165-1175). Del-1 protein produced in cells of the transgenic mice is a protein having the amino acid sequence represented by SEQ ID NO: 10 (including the signal peptide). Del-1 protein secreted from the cells to the outside thereof is a protein having an amino acid sequence consisting of amino acid residues at positions 26 to 480 in the amino acid sequence represented by SEQ ID NO: 10 (excluding the signal peptide). […] Using 20 μl of serum after the heat treatment, the activity of exogenous alkaline phosphatase (human thermostable alkaline phosphatase) was measured. In the measurement of the activity, 20 μl of serum was mixed with 200 μl of 1 mg/ml p-nitrophenyl phosphate, and after causing reaction at room temperature for 30 minutes to 1 hour, the absorbance at 405 nm was measured using a […] (BioRad). […]
Measurement values of the alkaline phosphatase activity are expressed by average value±SEM (standard error of the mean). The measurement values obtained from the control group into which alkaline phosphatase gene was not injected are regarded as 1, and the measurement values of the transgenic mice were calculated based thereon.

B1: full-length Del-1: Del-1 protein, SEQ ID NO: 10, overexpressed in transgenic mice; secreted form residues 26 to 480 (protein, listed as Mus musculus)
chain: MKHLVAAWLLVGLSLGVPQFGKGDICNPNPCENGGICLSGLADDSFSCECPEGFAGPNCSSVVEVASDEEKPTSAGPCIPNPCHNGGTCEISEAYRGDTFIGYVCKCPRGFNGIHCQHNINECEAEPCRNGGICTDLVANYSCECPGEFMGRNCQYKCSGPLGIEGGIISNQQITASSTHRALFGLRKWYPYYARLNKKGLINAWTAAENDRWPWIQINLQRKMRVTGVITQGAKRIGSPEYIKSYKIAYSNDGKTWAMYKVKGTNEEMVFRGNVDNNTPYANSFTPPIKAQYVRLYPQICRRHCTLRMELLGCELSGCSEPLGMKSGHIQDYQITASSVFRTLNMDMFTWEPRKARLDKQGKVNAWTSGHNDQSQWLQVDLLVPTKVTGIITQGAKDFGHVQFVGSYKLAYSNDGEHWMVHQDEKQRKDKVFQGNFDNDTHRKNVIDPPIYARFIRILPWSWYGRITLRSELLGCAEEE
exogenous alkaline phosphatase activity in serum, transgenic mouse (TG) vs wild-type mouse (WT): about twice as high as that of the wild-type mouse (WT)
